Measurements: patent US20210284724A1 (I MAB BIOPHARMA US, published 2021)

T1: mouse CXCL13 (mouse, UniProt O55038 22-109)
T1 construct: also called rmCXCL13
T1 sequence (looked up): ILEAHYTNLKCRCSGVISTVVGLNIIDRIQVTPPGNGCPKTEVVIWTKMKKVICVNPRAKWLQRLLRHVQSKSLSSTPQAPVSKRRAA

T2: cynomolgus CXCL13 (cynomolgus, UniProt H6WS58 23-109)
T2 construct: also called cynoCXCL13; Cyno CXCL13
T2 sequence: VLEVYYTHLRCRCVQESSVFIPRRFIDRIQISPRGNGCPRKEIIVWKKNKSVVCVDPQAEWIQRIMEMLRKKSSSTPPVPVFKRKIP

T3: human CXCL13 (human, UniProt O43927 23-109)
T3 construct: also called huCXCL13; rhCXCL13
T3 sequence (looked up): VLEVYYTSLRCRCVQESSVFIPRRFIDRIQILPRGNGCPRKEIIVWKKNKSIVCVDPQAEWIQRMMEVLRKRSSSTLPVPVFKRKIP


How the values were obtained:
mouse CXCL13 = target: T1, mouse CXCL13; assay: ELISA, coated antigen
cynomolgus CXCL13 = target: T2, cynomolgus CXCL13; assay: ELISA, coated antigen
human CXCL13 [1] = target: T3, human CXCL13; assay: ELISA, coated antigen
human CXCL13 [2] = target: T3, human CXCL13; assay: cell-based blocking ELISA, CXCL13 to CHO-K1-CXCR5
Protocol: Splenocytes were electro-fused with mouse myeloma cell line SP2/0 cells and plated into 96-well culture plate. The hybridoma supernatants were tested by ELISA binding assay for anti-human CXCL13 binders. Supernatants of positive binding clones were screened for function in blocking of human CXCL13 binding to its […] CXCR5 by Cell-based receptor blocking ELISA assay. Briefly, 5×10⁴ CHO-K1-CXCR5 cells were plated in 96-well plate with 100 μl of culture medium and incubated at 37° C. overnight. Cells were fixed with 100 μl of 2% PFA at RT for 1 hr after washing with PBS for 1 time. Blocking was done with 1% BSA in PBST for 1 hr at RT. Supernatants were diluted with PBS and pre-incubated with equal volume of 0.3 μg/ml human CXCL13 for 30 min at RT. 100 μl of antibody-antigen complex was then transferred into each cell wells for 30 min at RT. The samples were washed with 1×PBST for 3 times and 100 μl of 3 μg/ml of human Mab5261 antibody was add into each well to capture human CXCL13 and anti-human Fc-HRP was used to indirectly detect human CXCL13 when it bound to CHO-K1-CXCR5 cells. […] Reading was done at […].
Those antibodies were purified from hybridoma supernatants by binding with Protein G column and characterized by ELISA binding assays and cell-based blocking ELISA assays. […] 11/20 clones bound to both human CXCL13 and cynomolgus CXCL13 appeared to completely block human CXCL13 to human CXCR5. 11 blockers bound to both huCXCL13 and cynoCXCL13 were produced as chimeric human IgG1 antibodies for further Characterization.

Binder | binding result (mouse CXCL13) | binding result (cynomolgus CXCL13) | EC50 (human CXCL13 [1]) [µg/mL] | IC50 (human CXCL13 [2]) [µg/mL] | EC50 (cynomolgus CXCL13) [µg/mL]
175E3B10 (antibody, V domains shown, Hybridoma mAb) VH: QVTLKESGPGILQPSQTLSLTCSFSEFSLSVFGMGVGWIRQPSGKGLEWLAHIWWDDEKYYNPALKSRLTISKDTSKNQVFLKIANVDTADTATYFCARIDGYYDFDYWGQGTTLTVSS VL: DVLMTQTPLSLPVSLGTQASIFCRSSHSIVQDNGNTYLQWYLQKPGQSPKLLIYKVSNRFSGVPDRFSGSGSGTDFTLKISRVEAEDLGVYYCFQGSYVPYTFGGGTKLEIK | no binding | no binding | 0.0326 | 1.42 | 
184H10B5 (antibody, V domains shown, Hybridoma mAb) VH: QVTLKESGPGILQPSQTLSLTCSFSEFSLSVFGMGVGWIRQPSGKGLEWLAHIWWDDEKYYNPALKSRLTISKDTSKNQVFLKIANVDTADTATYYCARIDGYYDFDYWGQGTTLTVSS VL: DVLMTQTPLSLPVSLGTQASISCRSSHSIVQDNGNTYLQWYLQKPGQSPQLLIYKVSNRFSGVPDRFSGSGSGTDFTLKISRVEAEDLGVYYCFQGSYVPYTFGGGTKLEIK | no binding | no binding | 0.0272 | 4.85 | 
119H10D6 (antibody, V domains shown, Hybridoma mAb) VH: QVQLQQSGAELMKPGASVKISCKATGYTFNTYWIEWVKQRPGHGLEWIGEILPGSESTDYNEKFKDKATFTADISSNTAYMQLSSLTSEDSAVYYCARDYYGYYFDYWGQGTTLTVSS VL: DIVMTQSHKFMSTSVGDRVSITCKASQDVSTAVVWYQQKPGQSPKLLIYSASYRYTGVPDRFSGSGSGTDFTFTISSVQAEDLAVYYCQQHYSSPRTFGGGTKLEIK | no binding | no binding | 0.0393 | 0.533 | 
168A2D4 (antibody, V domains shown, Hybridoma mAb) VH: EVQLQQSGPELVKPGASVKISCKASGNTLTDYYMNWVKQSHGKSLEWIGDINPNNGDIIYNQKFKGKATLTVAKSSSTAYMELRSLTSEDSAVYYCAIYYDPYYHAMDYWGQGTSVTVSS VL: DIVMTQSHKFMSTSVRDRVSITCKASQDVSTGVAWYQQKPGQSPKLLIYSASYRYTGVPDRFTGSGSGTDFTFTISSVQAEDLAVYYCQQQYSVPLTFGAGTKLELK | no binding | no binding | 0.134 | 0.29 | 
130D6G1 (antibody, V domains shown, Hybridoma mAb) VH: QVQLQQSGAELMKPGASVKISCKSTGYTFSTYWIEWVKQRPGHGLEWIGEILPGSDSTNSNEKFEGKATFTADTSSNTAYMQLSSLTSEDSAVYYCARDYYGFYFDYWGQGTTLTVSS VL: DIVMTQSHKFMSTSVGDRVNITCKASQDVSTAVAWYQQKPGQSPKLLIYSTSYRYTGVPDRFTGSGSGTDFTFTISNVQAEDLAVYYCQQHYTTPRTFGGGTKLEIK | no binding | no binding | 0.0192 | 1.23 | 
168D6F2 (antibody, V domains shown, Hybridoma mAb) VH: QVQLQQPGAELVKPGASVKLSCQASGYTFTSYWMHWVKQRPGRGLEWIGGIDPDSGATKDNEKFKTKATLTVDKPSRTAYIQLSSLTSEDSAVFYCARGSTVVAPGDYFAMDYWGQGTSVTVSS VL: DIVLTPSPTSLAVSLGQRATMSCRASESVDNYGISFMHWYQQKPGQPPKLLIYRASNLDSGIPARFSASGSRTDFTLTINPVETDDVATYYCQQSNKDPWTFGGGTKLEIK | no binding | no binding | 0.0218 | 2.09 | 

Next, values leading:

binding result (mouse CXCL13) | binding result (cynomolgus CXCL13) | EC50 (human CXCL13 [1]) [µg/mL] | IC50 (human CXCL13 [2]) [µg/mL] | EC50 (cynomolgus CXCL13) [µg/mL] | Binder
no binding | no binding | 0.0544 | ~912 |  | 177D2G10 (antibody, V domains shown, Hybridoma mAb) VH: QIALKESGPGILQSSQTLSLTCSFSGFSLSTSGMHVGWFRQPSGKTLEWLAHIYWDDDKRYNPSLKSRLTISKDTSRNQVFLNLTNVDTADTATYYCARRGGDYDYDEGFDYWGQGTTLTVSS VL: DVVMTQTPLSLPVSLGDQASISCRSSQSLVHSNGFTYLHWYLQKPGQSPKLLIYKVSNRFSGVPDRFSGSGSGTEFTLRISRVEAEDLGVYFCSQSTHVPYTFGGGTKLEIK
no binding |  | 0.0385 | 2.22 | 0.196 | 19H7E10 (antibody, V domains shown, Hybridoma mAb) VH: EVQLQQSGPELVKPGASVKISCQASGYAFSDYYMNWVKQSHGKRLEWIGDINPNNDGTTYNQKFKDKATLTVDKSSSTAYMDLRSLTSEDSAVYYCARLSWSFFAMDYWGQGTSVTVSS VL: DIVMTQSHKFMSTSVGDRVSITCKASQDVSSGVAWYQQKPGQSPKVLIYSASHRHTGVPDRFTASGSGTDFTFTISSVQAEDLAVYYCQQYYNTPWTFGGGTKLEIK
no binding | no binding | 0.0134 | 4.59 |  | 156H3H7 (antibody, V domains shown, Hybridoma mAb) VH: EVQLQQSGPELVKPGASVKISCKASGYTFTDYYMNWVRQSHGKSLEWIGDINPNNGDTTYNQKFKGKATLTVDTSSSTVYMELRSLTSEDSAVYYCAGYDEDHYAMDYWGQGTSVTVSS VL: DYVMTQSHKFMSTSVGDRVSITCKASQDVSTGVAWYQQNPGQSPKLLIYSASHRYTGVPDRFTGSGSGTDFTFTISSVQAEDLAVYYCQQYYTTPWTFGGGTKLEIK
no binding |  | 0.0314 | 0.33 | 0.347 | 64C10G1 (antibody, V domains shown, Hybridoma mAb) VH: EVQLVESGGGLVKPGGSLKLSCAASGFTFSSYAMSWVRQTPEKRLEWVATISDGGSDAYYPDNVKGRFTISRDNAKNNLYLQMSHLKSEDTAMYYCARDYYGSGYEDSPMDYWGQGTSVTVSS VL: DIQMTQSPSSLSASLGGKVTITCKASQDINKYIAWYQHKPGKGPRLLIHYTSTLQPGIPSRFSGSGSGRDYSFSISNLEPEDFATYYCLQYDNLYTFGGGTKLEIK
no binding |  | 0.0201 | 0.793 | 0.252 | 411A11E9 (antibody, V domains shown, Hybridoma mAb) VH: EVQLVESGGGLVQPGGSLKLSCVVSGFTFSDYYMAWVRQTPTKGLEWVASINYDGGDTYYRDSVKGRFTVSRNNAKSSLFLQMDSLRSEDTATYYCKTEEDYDGSYVMDAWGQGASVIVSS VL: DIQMTQSPSFLSASVGDRVTISCKASQNINKELTWYQQKLGKAPKRLIYNTNILQTGIPSRFSGSGSNTDYTLTISSLQPEDFATYFCLQQSSLYTFGAGTKLELK
no binding |  | 0.0132 | 0.698 | 0.0711 | 415A3D1F4 (antibody, V domains shown, Hybridoma mAb) VH: EVKLLESGGGLVQAGGSMRLSCGAFGFTVTDFYINWIRQPAGKAPEWLGFMRNKANGYTTEYNPSVKGRFTISRNNTQNMPYLQMNTLRTEDTAIYYCARSRYNADDYYVGVMDVWGQGASVTVSS VL: DIQMTQFPASLSASLGETVSIECLASEDIYNNLAWYQQKPGKSPQLLIYYTNSLQDGVPSRFSGTGSGTQYSLKINSLESEDAATYFCLQDSEYPWTFGGGTKLKLK
no binding |  | 0.0237 | 1.49 | 0.0706 | 408E3F3 (antibody, V domains shown, Hybridoma mAb) VH: HVTLRESGPGVLQPSKTLSLTCSFSGFSLSTSAMVVSWIRQSSGMSLEWLAAIDWEGDKYYNPSLESRLTVSRDISDTQVFLRITSVDVADTATYYCAVMSSADSHSVLDAWGQGVSVTVSS VL: DIKMTQSPSFLSASVGDRVTINCKASQNIHNYLNWYQQKFGEAPRLLIYNTNNLQTGIPSRFSGSGSGTDFTLTISSLQPEDVATYFCLQHSSSLTFGSGTKLEIN
